Like-named read-outs stand apart in the source and are kept apart here.
Columns and labels:
[1] = target: T1, recombinant Strep-tagged SARS-CoV-2 trimeric spike (SARS-CoV-2, UniProt P0DTC2 14-1208)
[2] = target: T1, recombinant Strep-tagged SARS-CoV-2 …; remark: listed apart in the source
[3] = target: T1, recombinant Strep-tagged SARS-CoV-2 …; remark: listed apart in the source
[4] = target: T2, human epidermal growth factor receptor (EGFR) (human, UniProt P00533 25-645); test: biolayer interferometry
[5] = target: T1, recombinant Strep-tagged SARS-CoV-2 …; remark: listed apart in the source
[6] = target: T2, human epidermal growth factor receptor …

B1: ODIN-1-A56R fusion (ODIN-1 fused to vaccinia virus (VACV) A56R for rVACV display) (bispecific antibody, V domains shown)
VH: MGWFRQTNKKECPEDYTYNPRCPQQYGWSDCDCMGDRFGGYCRQDGCSNYIHRSTREFVATISWSGGSTYYTDSVKGRFTISRDNAKNTVYLQMNSLKPDDTAVYYCAAAGLGTVVSEWDYDYDYWGQGTQVTVSS
B1 was tested, and the “EC50 (read off the curve)” value [1] was roughly 0.2 µg/mL and the “EC50 (read off the curve)” value [2] was roughly 0.06 µg/mL.

B2: VHH-72 (SARS-CoV-2 spike VHH, soluble recombinant) (VHH)
VHH: QVQLQESGGGLVQAGGSLRLSCAASGRTFSEYAMGWFRQAPGKEREFVATISWSGGSTYYTDSVKGRFTISRDNAKNTVYLQMNSLKPDDTAVYYCAAAGLGTVVSEWDYDYDYWGQGTQVTVSS
notes: also called parental VHH-72; VHH 72.58
In the case of B2, the Kd [3] is reported as 460 nM, the koff [3] is reported as 0.0364 s⁻¹ and the kon [3] is reported as 79200 M⁻¹ s⁻¹. B2: no binding [4].

B3: VHH-72-A56R fusion (VHH-72 fused to vaccinia virus (VACV) A56R for rVACV display) (VHH)
VHH: B2 VHH
For B3, the “EC50 (read off the curve)” value [2] was roughly 0.07 µg/mL.

B4: ODIN-8 (VHH-72.58 with UL-CDR3 from 60H05 bovine IgG in FR2 loop) (bispecific antibody, V domains shown)
VH: MGWFRQNKLKSCPDGYTSGVECRFRGYTCANDGCWRVCSFTTCSGWMPASDTYRREFVATISWSGGSTYYTDSVKGRFTISRDNAKNTVYLQMNSLKPDDTAVYYCAAAGLGTVVSEWDYDYDYWGQGTQVTVSS
B4 showed a Kd [5] of 76.4 nM, a koff [5] of 0.012 s⁻¹ and a kon [5] of 158000 M⁻¹ s⁻¹. The Kd [6] was 11.4 nM, the koff [6] was 0.00103 s⁻¹ and the kon [6] was 90500 M⁻¹ s⁻¹.

From patent US20250228955A1 (ALBERT EINSTEIN COLLEGE OF MEDICINE, published 2025)
